Laboratory results as given in publication PMC5895635.
Values belong to the substance of their own block, whether it stands above or below them.

Experiments:
Test in all cases: two-hybrid; β-galactosidase activity in yeast strain AH109 with the Yeast β-galactosidase Assay Kit (Thermo Fisher Scientific); pGBKT7 bait and pGADT7 prey; three biological replicates
[1] = biological target: MnMADS33 (mulberry 'Jinqiang 63' (JQ63) used for vector construction; gene identified in Morus notabilis)
[2] = biological target: MnMADS50 (mulberry 'Jinqiang 63' (JQ63) used for vector construction; gene identified in Morus notabilis)
[3] = biological target: MnMADS1 (mulberry 'Jinqiang 63' (JQ63) used for vector construction; gene identified in Morus notabilis)
pGBKT7-53 = biological target: pGBKT7-53

- β-galactosidase activity [1]: 15.1 units
- β-galactosidase activity [2]: 16.3 units
Substance: MnMADS1 (natural protein)

- β-galactosidase activity [3]: 17.5 units
Substance: MnMADS33 (natural protein)

- β-galactosidase activity [3]: 15.3 units
Substance: MnMADS50 (natural protein)

Substance: pGADT7-T
- β-galactosidase activity (pGBKT7-53): 15.7 units
